In patent US20090131312A1:

B1: recombinant human PF4 (ligand, UniProt P02776 32-101, looked up)
Platelet factor 4: EAEEDGDLQCLCVKTTSQVRPRHITSLEVIKAGPHCPTAQLIATLKNGRKICLDLQAPLYKKIIKKLLES
B2: recombinant human I-TAC (ligand, UniProt O14625 22-94, looked up)
C-X-C motif chemokine 11: FPMFKRGRCLCIGPGVKAVKVADIEKASIMYPSNNCDKIEVIITLKENKGQRCLNPKSKQARLIIKKVERKNF
B3: recombinant human MIG (ligand, UniProt Q07325 23-125, looked up)
C-X-C motif chemokine 9: TPVVRKGRCSCISTNQGTIHLQSLKDLKQFAPSPSCEKIEIIATLKNGVQTCLNPDSADVKELIKKWEKQVSQKKKQKNGKKHQKKKVLKVRKSQRSRQKKTT

molecular target: human CXCR3 (human) (UniProt P49682); assay: cell-based or functional assay
Sequence of UniProt P49682 (P49682 whole entry): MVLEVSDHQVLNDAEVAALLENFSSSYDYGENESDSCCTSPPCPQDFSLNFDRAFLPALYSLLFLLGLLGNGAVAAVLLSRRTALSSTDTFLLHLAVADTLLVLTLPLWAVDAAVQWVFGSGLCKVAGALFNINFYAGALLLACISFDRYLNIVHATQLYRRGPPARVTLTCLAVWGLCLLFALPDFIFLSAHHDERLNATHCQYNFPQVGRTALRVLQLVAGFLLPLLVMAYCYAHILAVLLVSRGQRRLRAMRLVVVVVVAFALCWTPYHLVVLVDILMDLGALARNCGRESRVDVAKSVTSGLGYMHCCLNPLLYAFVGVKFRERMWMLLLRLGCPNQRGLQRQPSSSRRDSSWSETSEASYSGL

| phosphorylated ERK1/2 (immunoblot), fold induction over control levels; HMVEC, 2 min. (fold induction over control) | phosphorylated ERK1/2 (immunoblot), fold induction over control levels; HMVEC, 5 min. (fold induction over control) | phosphorylated ERK1/2 (immunoblot), fold induction over control levels; HMVEC, 15 min. (fold induction over control) | phosphorylated ERK1/2 (immunoblot), fold induction over control levels; HUVEC, 2 min. (fold induction over control) | phosphorylated ERK1/2 (immunoblot), fold induction over control levels; HUVEC, 5 min. (fold induction over control) | phosphorylated ERK1/2 (immunoblot), fold induction over control levels; HUVEC, 15 min. (fold induction over control) | phosphorylated ERK1/2 (immunoblot), fold induction over control levels; Pre-B-cells expressing human CXCR3, 2 min. (fold induction over control) | phosphorylated ERK1/2 (immunoblot), fold induction over control levels; Pre-B-cells expressing human CXCR3, 5 min. (fold induction over control) | phosphorylated ERK1/2 (immunoblot), fold induction over control levels; Pre-B-cells expressing human CXCR3, 15 min. (fold induction over control) | Molecule |
| --- | --- | --- | --- | --- | --- | --- | --- | --- | --- |
| 0.915 | 1.06 | 3.28 | 4.13 | 5.68 | 9.83 | 1.57 | 1.16 | 0.931 | native PF4 with native I-TAC N-loop (ligand) |
| 0.333 | 0.07 | 0.382 | 10.3 | 10.8 | 6.87 | 1.03 | 0.921 | 0.57 | recombinant human IP-10 (ligand) |
| 1.01 | 0.895 | 1.78 | 6.85 | 9.63 | 11.5 | 1.25 | 1.33 | 1.45 | B1 |
| 0.205 | 0.137 | 3.08 | 1.65 | 1.36 | 1.31 | 2.24 | 1.38 | 1.22 | B2 |
| 1.56 | 1.13 | 1.31 | 5.35 | 6.96 | 5.76 | 0.795 | 0.842 | 1.76 | B3 |
